The target in the test is T1, SARS-CoV-2 Spike protein (wild-type), biotinylated (MyBioSource) (SARS-CoV-2, UniProt P0DTC2 16-1213).
T1 construct: also called WT SARS-CoV-2 Spike; wild-type Spike
Nature of the test: binding of spike to ACE2-fragment constructs; assay not described.

Data on two molecules can be found in patent US20250092112A1 (HEMOGENYX PHARMACEUTICALS, published 2025).

B1: CAR-based construct 1: CD8 signal peptide+ACE2 (19-358)+CD8 hinge+CD8 TM domain+CD3ζ intracellular domain (receptor)
chain: not shown
notes: domain: CD8 hinge;domain: CD8 TM domain;domain: CD3ζ intracellular domain
Regarding B1, the binding result is reported as “no binding”.

B2: CAR-based construct 2: CD8 signal peptide+ACE2 (19-605)+CD8 hinge+CD8 TM domain+CD3ζ intracellular domain (receptor)
chain: not shown
notes: as for B1
Regarding B2, the binding result was “no binding”.
